Consider one substance from patent publication US20050208611A1, “Process for identifying compounds with fungicide activity based on UMP/CMP kinases from fungi” (priority 2003, published 2005).

In general, Km refers to the concentration of substrate that gives half-maximal velocity.

The subject of data set [1] is Nc1ncnc2c1ncn2[C@@H]1O[C@H](COP(=O)(O)OP(=O)(O)OP(=O)(O)O)[C@@H](O)[C@H]1O. The data set can be described thus: purified protein, by the assay type. The conditions noted are these: other: substrate Km of the recombinant UMP/CMP kinase from U. maydis, Lineweaver-Burk plot (FIG. 4A/4B).
Method: The ADP produced in the reaction is measured by the coupled reaction with pyruvate kinase and lactate dehydrogenase. Here the pyruvate produced in the reaction of the pyruvate kinase is converted to lactate by the lactate dehydrogenase with the use of NADH.
The activity and/or decrease or increase in activity of the inventive polypeptide can therefore occur by coupling this reaction with the enzymatic conversion of the ADP by the pyruvate kinase and the subsequent enzymatic conversion by the lactate dehydrogenase of the pyruvate produced. This makes use of the fact that the pyruvate produced in the reaction of the pyruvate kinase is converted to lactate by the lactate dehydrogenase (LDH) with the consumption of NADH.
The co-substrate NADH consumed in the reaction of the LDH has an extinction maximum at 340 nm.
Data set [2] deals with O=c1ccn([C@@H]2O[C@H](COP(=O)(O)O)[C@@H](O)[C@H]2O)c(=O)[nH]1. As to the kind of experiment: purified protein, by the assay type. The conditions noted are these: other: substrate Km of the recombinant UMP/CMP kinase from U. maydis, Lineweaver-Burk plot (FIG. 4A/4B).

As for “UMP/CMP kinase from Ustilago maydis (Mycosarcoma maydis)”, the Michaelis constant (Km) came to 60 µM in data set [1] and 120 µM in data set [2].
